Results from patent US20200239579A1 (Genmab, published 2020).
One block for each binder: values may come before it.

Tests used:
[1] = molecular target: T1, human PD-L1 (full length, on cells) (human, UniProt Q9NZQ7 19-290); assay: flow cytometry on MDA-MB-231 cells, PE anti-human IgG secondary, MFI (PE)
T1 construct: The entry holds the signal peptide; also called CD274; B7H1
Procedure: (§1) Cells (3-5×10⁴ cells/well) were incubated in polystyrene 96-well round-bottom plates (Greiner bio-one, cat. no. 650101) with serial dilutions of antibodies (range 0.0001 to 10 μg/mL in 5-fold dilution steps) in 50 μL PBS/0.1% BSA/0.02% azide (staining buffer) at 4° C. for 30 min.
(§2) After washing twice in staining buffer, cells were incubated in 50 μL secondary antibody at 4° C. for 30 min. As a secondary antibody, R-Phycoerythrin (PE)-conjugated goat-anti-human IgG F(ab′)₂ (Cat. no. 109-116-098, Jackson ImmunoResearch Laboratories, Inc., West Grove, Pa.) diluted 1:500 in staining buffer, was used for all experiments. Next, cells were washed twice in staining buffer, re-suspended in 20 μL staining buffer and analyzed on an iQue screener (Intellicyt Corporation, USA). Binding curves were analyzed using non-linear regression (sigmoidal dose-response with variable slope) using GraphPad Prism V75.04 software (GraphPad Software, San Diego, Calif., USA).

PDLoneECDHisCtag [2] = molecular target: T2, PDLoneECDHisCtag (human, UniProt Q9NZQ7 19-238); assay: BLI cross-block, second antibody on PDLoneECDHisCtag held by immobilised 632; plain = non-blocking
T2 construct: Expressed in HEK-293F cells; theoretical molecular weight 29 kDa; also called recombinant human PD-L1 ECD; human PD-L1 (BLI); not shown: C-terminal His-tag; C-tag
T2 sequence (Q9NZQ7 19-238, form in doubt): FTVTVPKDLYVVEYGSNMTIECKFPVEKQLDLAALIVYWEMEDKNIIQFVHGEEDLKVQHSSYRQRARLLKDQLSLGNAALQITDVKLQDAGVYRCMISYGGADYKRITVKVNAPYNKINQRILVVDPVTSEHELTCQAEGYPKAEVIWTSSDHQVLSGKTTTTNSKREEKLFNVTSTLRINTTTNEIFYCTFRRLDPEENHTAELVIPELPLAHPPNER
Procedure: (§3) Antibody cross-block testing was performed using biolayer interferometry (BLI) on an Octet HTX instrument (ForteBio). Antibodies (20 μg/ml in 10 mM sodium acetate buffer pH 6.0 (ForteBio)) were immobilized on Amine-Reactive 2nd Generation (AR2G) biosensors (ForteBio) according to the instructions of the manufacturer. After a baseline (50 s) in Sample Diluent (ForteBio), biosensors containing immobilized antibodies were loaded for 500 s with PDLoneECDHisCtag (100 nM or 2.7 μg/ml), after which the association response of a second antibody (10 μg/ml) was followed for 500 s. Biosensors were regenerated by using 3 times 5 s alternating exposures to 10 mM glycine pH 2.5 and Sample Diluent. The experiment was repeated with a new set of second antibodies starting from the baseline step. Each biosensor was used 6 times. The experiment was performed at 30° C. using a shaker speed of 1000 rpm. Data was analyzed using Data Analysis Software v9.0.0.12 (ForteBio). The Y-axis was aligned to the association step and Savitzky-Golay filtering was applied. The average buffer response was subtracted from the association response of the second antibody in order to correct for the dissociation of PDLoneECDHisCtag from the immobilized antibody. The corrected association responses were plotted in a matrix format.

[3] = molecular target: T1, human PD-L1 (full length, on cells); assay: flow cytometry on SK-MES-1 cells, PE anti-human IgG secondary, MFI (PE)
Procedure: as §1, §2

PDLoneECDHisCtag [4] = molecular target: T2, PDLoneECDHisCtag; assay: BLI (Octet HTX); antibody on anti-human IgG Fc capture sensor, PDLoneECDHisCtag as analyte; 1:1 global fit
Procedure: (§4) In a first set of experiments, affinities for recombinant-expressed human PD-L1 protein were determined using Bio-layer interferometry (BLI) on an Octet HTX instrument (ForteBio). Anti-Human IgG Fc Capture (AHC) biosensors (ForteBio) were loaded for 900 s with antibodies (1 μg/ml). […] The experiment was carried out while shaking at 1000 rpm at 30° C. Data was analyzed with Data Analysis Software v9.0.0.12 (ForteBio) using the 1:1 model and a global full fit with 1000 s association time and 200 or 1000 s dissociation time. Data traces were corrected by subtraction of a buffer reference, the Y-axis was aligned to the last 10 s of the baseline, and interstep correction as well as Savitzky-Golay filtering was applied. Data traces with a response <0.05 nm were excluded from analysis. As default, the fit using 1000 s dissociation time was used.

[5] = molecular target: T3, cynomolgus PD-L1/137-H1 protein (Acro Biosystems, cat. No. PD1-052H4-100) (cynomolgus, UniProt G7PSE7 19-239); assay: BLI (Octet HTX), average of 3 experiments
T3 construct: also called cynomolgus PD-L1 (BLI)
T3 sequence (G7PSE7 entry or part of it): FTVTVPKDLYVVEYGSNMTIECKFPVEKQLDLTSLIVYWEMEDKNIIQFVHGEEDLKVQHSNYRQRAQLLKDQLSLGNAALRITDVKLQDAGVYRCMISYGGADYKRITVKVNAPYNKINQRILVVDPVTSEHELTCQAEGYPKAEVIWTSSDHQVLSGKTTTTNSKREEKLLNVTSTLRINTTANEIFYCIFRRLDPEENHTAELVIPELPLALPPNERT
Procedure: as §4
The experimental set-up was as described above, with the exception of [0466] Loading time of AHC biosensors with antibodies was 600 s; [0467] Baseline was 300 s; [0468]

PDLoneECDHisCtag [6] = molecular target: T2, PDLoneECDHisCtag; assay: BLI cross-block, second antibody on PDLoneECDHisCtag held by immobilised 547; bold = blocking
Procedure: as §3

PDLoneECDHisCtag [7] = molecular target: T2, PDLoneECDHisCtag; assay: BLI cross-block, second antibody on PDLoneECDHisCtag held by immobilised 511-LC33S; bold = blocking
Procedure: as §3

PDLoneECDHisCtag [8] = molecular target: T2, PDLoneECDHisCtag; assay: BLI cross-block, second antibody on PDLoneECDHisCtag held by immobilised 421-LC91S; bold = blocking
Procedure: as §3

[9] = molecular target: T1, human PD-L1 (full length, on cells); assay: flow cytometry on PC3 cells, PE anti-human IgG secondary, MFI (PE)
Procedure: as §1, §2

PDLoneECDHisCtag [10] = molecular target: T2, PDLoneECDHisCtag; assay: BLI (Octet HTX); antibody on anti-human IgG Fc capture sensor, PDLoneECDHisCtag as analyte; 1:1 global fit, 200 s dissociation time
Procedure: as §4

[11] = molecular target: T1, human PD-L1 (full length, on cells); assay: cell-based or functional assay
PDLoneECDHisCtag [12] = molecular target: T2, PDLoneECDHisCtag; assay: BLI cross-block, second antibody on PDLoneECDHisCtag held by immobilised 421-LC91S; plain = non-blocking
Procedure: as §3

T1 sequence (Q9NZQ7 19-290 limits assumed): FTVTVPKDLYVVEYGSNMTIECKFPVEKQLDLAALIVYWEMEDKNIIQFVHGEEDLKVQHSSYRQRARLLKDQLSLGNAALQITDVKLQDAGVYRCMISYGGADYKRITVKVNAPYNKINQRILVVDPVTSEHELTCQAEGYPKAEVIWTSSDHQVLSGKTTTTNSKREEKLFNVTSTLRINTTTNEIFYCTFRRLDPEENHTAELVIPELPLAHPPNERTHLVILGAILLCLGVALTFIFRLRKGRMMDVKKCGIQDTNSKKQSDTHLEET

EC50 (read off the curve) [1]: ~0.02 µg/mL
association response of the second antibody (PDLoneECDHisCtag [2]): 0.6 nm
EC50 (read off the curve) [3]: ~0.1 µg/mL
Kd (PDLoneECDHisCtag [4]): 0.088 nM
koff (PDLoneECDHisCtag [4]): 6.4e-05 s⁻¹
kon (PDLoneECDHisCtag [4]): 730000 M⁻¹ s⁻¹
Fold difference of KD (cynomolgus against human PD-L1) [5]: 2.3 fold
association response of the second antibody (PDLoneECDHisCtag [6]): 0 nm
association response of the second antibody (PDLoneECDHisCtag [7]): 0 nm
association response of the second antibody (PDLoneECDHisCtag [8]): -0.1 nm
EC50 (read off the curve) [9]: ~0.03 µg/mL
B1: IgG1-338-FEAR (antibody, V domains shown)
VH: EVQVVESGGGLVQPGGSLRLSCAASGFTFSRFWMSWVRQAPGKGLEWVANIKQDGGEKYYVDSVKGRFTISRDNAKNSLYLQMNSLRGEDTAVYYCARDDNWNGHFDYWGQGTLVTVSS
VL: DIQMTQSPSTLSASVGDRVTITCRASQSISSWLAWYQQKPGKAPNLLIYKASSLESGVPSRFSGSGSGTEFTLTISSLQPDDFATYYCQQYYGSYITFGQGTRLEIKR

association response of the second antibody (PDLoneECDHisCtag [2]): 0.6 nm
EC50 (read off the curve) [3]: ~0.2 µg/mL
Kd (PDLoneECDHisCtag [4]): 0.029 nM
koff (PDLoneECDHisCtag [4]): 3.6e-05 s⁻¹
kon (PDLoneECDHisCtag [4]): 1.2e+06 M⁻¹ s⁻¹
Fold difference of KD (cynomolgus against human PD-L1) [5]: 2.3 fold
association response of the second antibody (PDLoneECDHisCtag [6]): 0 nm
association response of the second antibody (PDLoneECDHisCtag [8]): 0 nm
EC50 (read off the curve) [9]: ~0.04 µg/mL
B2: IgG1-547-FEAR (antibody, V domains shown)
VH: EVQLLEPGGGLVQPGGSLRLSCEASGSTFSTYAMSWVRQAPGKGLEWVSGFSGSGGFTFYADSVRGRFTISRDSSKNTLFLQMSSLRAEDTAVYYCAIPARGYNYGSFQHWGQGTLVTVSS
VL: SYVLTQPPSVSVAPGQTARITCGGNNIGSKSVHWYQQKPGQAPVLVVYDDNDRPSGLPERFSGSNSGNTATLTISRVEAGDEADYYCQVWDSSSDHVVFGGGTKLTVLG

Kd (PDLoneECDHisCtag [10]): 3.8 nM
koff (PDLoneECDHisCtag [10]): 0.0045 s⁻¹
kon (PDLoneECDHisCtag [10]): 1.2e+06 M⁻¹ s⁻¹
EC50 (read off the curve) [3]: ~0.2 µg/mL
Fold difference of KD (cynomolgus against human PD-L1) [5]: 2.3 fold
association response of the second antibody (PDLoneECDHisCtag [7]): 0 nm
EC50 (read off the curve) [9]: ~0.01 µg/mL
EC50 (read off the curve) [11]: ~0.05 µg/mL
association response of the second antibody (PDLoneECDHisCtag [12]): 0.3 nm
B3: IgG1-511-LC33S-FEAR (antibody, V domains shown)
VH: QVQLVQSGSELKKPGASVMVSCKASGYTFTSYVMNWVRQAPGQGLEWMGWINSYTGNPTSAQGFTGRFVFSFDTSVNTAYLQISSLKAEDTAVYYCARGYCTSTSCYLDYWGQGTLVTVSS
VL: SYELTQPPSVSVSPGHTARITCSGDALPKKYASWFQQKSGQAPVLVIYEDSKRPSGIPERFSGSTSGTMATLTISGAQVEDETDYYCYSADTSGTHRVFGGGTKLTVLG
